The source of these data is PMC10988774 (Journal of molecular biology, 2023).

In the test the target is T1, p65 La module, LaMod(108–355) (Tetrahymena thermophila, UniProt W7X6T2 108-355).
T1 sequence (looked up): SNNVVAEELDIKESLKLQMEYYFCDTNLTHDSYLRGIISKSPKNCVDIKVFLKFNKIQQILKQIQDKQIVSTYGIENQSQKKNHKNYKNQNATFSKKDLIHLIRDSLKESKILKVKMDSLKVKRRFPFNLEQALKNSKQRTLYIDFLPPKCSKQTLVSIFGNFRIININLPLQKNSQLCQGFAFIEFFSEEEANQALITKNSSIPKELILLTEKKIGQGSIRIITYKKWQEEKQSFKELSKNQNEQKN
The experiment in a line: NMR titration.

B1: p65 N-terminal domain, NTD (residues 1–109) (domain or fragment, Tetrahymena thermophila, UniProt W7X6T2 1-109, looked up)
chain: MDEYLENTNLEELEQECFMEDYQHEDVVEQENHQVDANDIYENQQMNDESQLNQDVKISQQKEQAVEMIEEQQQNNQDKFKQFQDCMAHITELNFKRNYQNLTEQSSSN
For the molecule B1, the binding result was “binds”.
